As usually defined, the stoichiometry N is the number of molecules, sites or subunits per partner or assembly.

This data set concerns the molecule itself. Put plainly: SEC-MALS; hTH-RD in the absence of amino acid ligand (Supplementary Fig. S2C). For orientation: Size exclusion chromatography separates by hydrodynamic size, large species first.

B1: regulatory domain of human tyrosine hydroxylase (hTH-RD), residues 65-160 (domain or fragment, UniProt P07101 96-191, looked up)
chain: GDPLEAVAFEEKEGKAVLNLLFSPRATKPSALSRAVKVFETFEAKIHHLETRPAQRPRAGGPHLEYFVRLEVRRGDLAALLSGVRQVSEDVRSPAG
notes: tyrosine hydroxylase (TH), human, regulatory domain, residues 65-160; which isoform the numbers count on is told only by GenBank number 88900503; Vector pFB-Lic-Bse; source: insect sf9 cells, purified (as the PAH domains); not shown: His6, N-terminal, cleaved
B1: the “stoichiometry N” value worked out at 2.

The record behind these values is paper PMC4822156, “Structural basis for ligand-dependent dimerization of phenylalanine hydroxylase regulatory domain” (Scientific Reports, 2016).
